Measured values from article PMC2632915.

Columns and labels:
[1] = biological target: Hera_208–510 (C-terminal RecA domain, dimerization domain and RNA-binding domain of T. thermophilus Hera) (Thermus thermophilus); assay: SEC
[2] = biological target: Hera_208–419 (C-terminal RecA domain and dimerization domain of T. thermophilus Hera) (Thermus thermophilus); assay: crystal structure
[3] = biological target: Hera_208–419 (C-terminal RecA domain and dimerization domain of T. thermophilus Hera) (Thermus thermophilus); assay: SEC
[4] = biological target: Hera_208–419 (C-terminal RecA domain and dimerization domain of T. thermophilus Hera) (Thermus thermophilus); assay: SEC; remark: listed apart in the source

stoichiometry N [1]	stoichiometry N [2]	stoichiometry N [3]	stoichiometry N [4]	Substance
2	–	–	–	Hera_208–510 (C-terminal RecA domain, dimerization domain and RNA-binding domain of T. thermophilus Hera) (domain or fragment)
–	2	2	2	Hera_208–419 (C-terminal RecA domain and dimerization domain of T. thermophilus Hera) (domain or fragment)
